# Measurements taken from US20250042994A1 (HAINAN SIMCERE ZAIMING PHARMACEUTICAL, published 2025).
# Numbering of substitutions follows the chain as printed.
# T1: human CD19 on Raji cells (human, UniProt P15391 20-556)
# T1 construct: whole, on cells
# T1 sequence (looked up): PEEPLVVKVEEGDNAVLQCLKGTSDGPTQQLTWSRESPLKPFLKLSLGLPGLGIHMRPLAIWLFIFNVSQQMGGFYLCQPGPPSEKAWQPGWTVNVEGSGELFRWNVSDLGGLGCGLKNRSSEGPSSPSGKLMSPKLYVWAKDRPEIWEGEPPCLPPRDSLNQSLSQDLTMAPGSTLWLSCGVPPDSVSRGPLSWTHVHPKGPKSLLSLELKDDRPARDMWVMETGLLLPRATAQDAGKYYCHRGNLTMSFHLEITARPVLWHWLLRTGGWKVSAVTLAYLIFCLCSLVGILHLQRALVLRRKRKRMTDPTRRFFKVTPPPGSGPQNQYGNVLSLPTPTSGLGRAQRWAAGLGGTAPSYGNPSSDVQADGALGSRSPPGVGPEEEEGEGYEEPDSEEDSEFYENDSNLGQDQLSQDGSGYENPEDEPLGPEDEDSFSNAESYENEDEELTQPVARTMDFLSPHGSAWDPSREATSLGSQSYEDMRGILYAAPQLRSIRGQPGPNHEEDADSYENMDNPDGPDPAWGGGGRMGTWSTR
# T2: human CD19 exon1-3-His tag protein (human, UniProt P15391 20-186, limits assumed)
# T2 construct: membrane-distal part of the extracellular region, made in HEK293E cells; not shown: His tag
# T2 sequence (looked up): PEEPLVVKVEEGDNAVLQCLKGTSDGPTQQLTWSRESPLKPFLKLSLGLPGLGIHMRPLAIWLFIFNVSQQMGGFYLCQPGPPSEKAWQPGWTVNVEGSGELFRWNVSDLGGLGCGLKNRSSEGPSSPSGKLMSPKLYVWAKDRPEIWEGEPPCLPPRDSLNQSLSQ
# T3: Human CD19-his protein (human, UniProt P15391 20-291)
# T3 construct: bought protein; also called recombinant human CD19-His; CD19 full-length protein; not shown: His tag
# T3 sequence (looked up): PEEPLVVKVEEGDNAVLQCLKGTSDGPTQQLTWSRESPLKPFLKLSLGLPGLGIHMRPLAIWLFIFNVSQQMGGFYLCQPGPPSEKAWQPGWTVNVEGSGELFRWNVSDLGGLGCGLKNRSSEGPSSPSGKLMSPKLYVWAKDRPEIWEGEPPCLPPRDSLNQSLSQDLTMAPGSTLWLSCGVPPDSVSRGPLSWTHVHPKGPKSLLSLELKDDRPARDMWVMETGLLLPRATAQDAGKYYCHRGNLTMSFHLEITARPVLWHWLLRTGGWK
# T4: human CD19 on CHO-K1-human CD19 cells (human, UniProt P15391 20-556)
# T4 construct: whole, on cells; also called CHO-K1-human CD19-2C8
# T4 sequence (looked up): T1 sequence (looked up)
# B1: F3.121.4-L1H2 (antibody, mouse IgG1, kappa, V domains shown)
# VH: EVQLVQSGAEVKKPGASVKVSCKASGYTFTNYWMHWVRQAPGQGLEWMGEIDPSDNYANYNQEFQGRVTITVDKSASTAYMELSSLRSEDTAVYYCARHDGYFGALDYWGQGTTVTVSS
# VL: EIVLTQSPATLSLSPGERATLSCSASSSISSNYLHWYQQKPGQAPRFLIYRTSNLASGIPARFSGSGSGTDFTLTISSLEPEDFAVYYCQQASSIPRMFTFGQGTKLEIKR
# notes: humanized antibody of F3.121.4, VL1+VH2, murine IgG1 constant regions
# B2: F3.121.4-L2H2 (antibody, mouse IgG1, kappa, V domains shown)
# VH: B1 VH
# VL: EIVLTQSPDFQSVTPKEKVTITCSASSSISSNYLHWYQQKPDQSPKLLIKRTSNLASGVPSRFSGSGSGTDFTLTINSLEAEDAATYYCQQASSIPRMFTFGQGTKLEIKR
# notes: humanized antibody of F3.121.4, VL2+VH2, murine IgG1 constant regions
# B3: F3.121.4-L1H1 (antibody, mouse IgG1, kappa, V domains shown)
# VH: B1 VH with G44R
# VL: B1 VL
# notes: humanized antibody of F3.121.4, VL1+VH1, murine IgG1 constant regions
# B4: F3.121.4-L1H3 (antibody, mouse IgG1, kappa)
# heavy: EVQLVQSGAEVKKPGASVKVSCKASGYTFTNYWMHWVRQRPGQGLEWMGEIDPSDNYANYNQEFQGRVTITVDKSASTAYMELSSLRSEDTAVYYCARHDGYFGALDYWGQGTTVTVSSAKTTPPSVYPLAPGSAAQTNSMVTLGCLVKGYFPEPVTVTWNSGSLSSGVHTFPAVLQSDLYTLSSSVTVPSSTWPSETVTCNVAHPASSTKVDKKIVPRDCGCKPCICTVPEVSSVFIFPPKPKDVLTITLTPKVTCVVVDISKDDPEVQFSWFVDDVEVHTAQTQPREEQFNSTFRSVSELPIMHQDWLNGKEFKCRVNSAAFPAPIEKTISKTKGRPKAPQVYTIPPPKEQMAKDKVSLTCMITDFFPEDITVEWQWNGQPAENYKNTQPIMDTDGSYFVYSKLNVQKSNWEAGNTFTCSVLHEGLHNHHTEKSLSHSPGK
# light: EIVLTQSPATLSLSPGERATLSCSASSSISSNYLHWYQQKPGQAPRFLIYRTSNLASGIPARFSGSGSGTDFTLTISSLEPEDFAVYYCQQASSIPRMFTFGQGTKLEIKRADAAPTVSIFPPSSEQLTSGGASVVCFLNNFYPKDINVKWKIDGSERQNGVLNSWTDQDSKDSTYSMSSTLTLTKDEYERHNSYTCEATHKTSTSPIVKSFNRNEC
# notes: humanized antibody of F3.121.4, VL1+VH3, murine IgG1 constant regions
# B5: F3.121.4-L1H4 (antibody, mouse IgG1, kappa)
# heavy: B4 heavy with V5Q
# light: B4 light
# notes: humanized antibody of F3.121.4, VL1+VH4, murine IgG1 constant regions
# Target: T1, human CD19 on Raji cells
# Test: FACS on Raji cells
# Method: (§1) After the digestion was terminated, the cells were washed 2 times with a PBS buffer; and for suspension cell Raji, the supernatant of the medium was discarded by directly centrifugation, and the cell pellet was washed 2 times with PBS. After counting the cells in the previous step, the cell pellet was resuspended with [PBS+2% (w/w) BSA] blocking solution to 2×10⁶ cells/ml, and added to a 96-well FACS reaction plate at 50 μl/well, and then the sample to be tested was added at 50 μl/well, and incubated on ice for 2 h. The obtained mixture was centrifuged and washed 3 times with a PBS buffer. […] The obtained mixture was centrifuged and washed 5 times with a PBS buffer, and FACS (FACS Canto™, purchased from BD Company) was used for detection and result analysis. Data analysis was performed by software (FlowJo) to obtain the mean fluorescence intensity (MFI) of the cells. And then software (GraphPad Prism8) was used for analysis, data fitting, and EC50 value calculation. […] The same method was used to detect the binding of the chimeric antibodies to endogenous CD19-negative cells, MoLT4 cells (purchased from ATCC, CRL-1582), and CHO-K1 cells.
Binder,EC50 [nM],Maximum mean fluorescence intensity [MFI]
B1,0.43,31700
B2,0.41,30100
B3,0.43,30500
B4,0.46,32000
B5,0.44,31600

# Target: T2, human CD19 exon1-3-His tag protein
# Test: ELISA, coated human CD19 exon 1-3-His
Binder,OD450 at 0.0001 nM [OD450],OD450 at 0.001 nM [OD450],OD450 at 0.01 nM [OD450],OD450 at 0.10 nM [OD450],OD450 at 1.00 nM [OD450],OD450 at 10 nM [OD450],OD450 at 100 nM [OD450]
B1,0.05,0.05,0.05,0.05,0.05,0.06,0.09
B2,0.05,0.05,0.05,0.05,0.05,0.05,0.09
B3,0.07,0.06,0.06,0.07,0.08,0.08,0.11
B4,0.05,0.05,0.05,0.05,0.05,0.05,0.09
B5,0.05,0.05,0.05,0.05,0.05,0.05,0.08

# Target: T3, Human CD19-his protein
# Test: SPR Biacore, method of example 7.1, human CD19-His
# Method: A sample buffer and a running buffer were HBS-EP+ (10 mM HEPES, 150 mM NaCl, 3 mM EDTA and 0.05% surfactant P20) (GE Healthcare; BR-1006-69). The flow-through cell was set to 25° C. The sample block was set to 16° C. Both were pretreated with the running buffer. In each cycle, an antibody to be detected was first captured with a Protein A chip, and then a single concentration of CD19 antigen protein was injected. The binding and dissociation processes of the antibody and the antigen protein were recorded, and finally Glycine pH 1.5 (GE Healthcare; BR-1003-54) was used to complete chip regeneration. The binding was measured by injecting different concentrations of recombinant human CD19-His proteins in a solution for 240 s with a flow rate of 30 μl/min. The concentration started from 200 nM (see the detailed results for the actual concentration in the test) and was diluted at 1:1, making a total of 5 concentrations. The dissociation phase was monitored for up to 600 s and was triggered by switching from sample solution to running buffer. The surface was regenerated by washing with a 10 mM glycine solution (pH 1.5) for 30 s at a flow rate of 30 μl/min. Bulk refractive index difference was corrected by subtracting the response obtained from the goat anti-human Fc surface. Blank injection was also subtracted (=double reference). For calculation of apparent KD and other kinetic parameters, Langmuir 1:1 model was used.
# SPR (biacore) detection and data analysis were performed according to the method in example 7.1.
Binder,Kd [nM],koff [s⁻¹],kon [M⁻¹ s⁻¹]
B1,0.00058,6.84e-08,118000
B2,1.46,0.000195,134000
B3,0.0284,3.45e-06,121000
B4,0.00502,6.17e-07,123000
B5,0.000205,1.86e-08,91100

# Target: T3, Human CD19-his protein
# Test: ELISA, coated human CD19-His
# Method: Human CD19-his protein (purchased from ACROBiosystems, catalog number: CD9-H52H2) was diluted with PBS to a final concentration of 4 μg/mL, and then added to a 96-well ELISA plate at 100 μl/well. The plate was sealed with a plastic film and incubated overnight at 4° C., the plate was washed 2 times with PBS the next day, and then a blocking solution [PBS+2% (w/w) BSA] was added for blocking at room temperature for 2 h. The blocking solution was poured off, and 100 nM gradiently diluted CD19 chimeric antibody or control antibody was added at 50 μl/well. After incubation at 37° C. for 2 h, the plate was washed 3 times with PBS. […] TMB substrate was added at 50 μl/well, and incubated at room temperature for 10 min, and then a stop solution (1.0 N HCl) was added at 50 μl/well. The OD450 nm values were read by an ELISA microplate reader (Multimode Plate Reader, EnSight, purchased from Perkin Elmer).
Binder,OD450 at 0.0001 nM [OD450],OD450 at 0.001 nM [OD450],OD450 at 0.01 nM [OD450],OD450 at 0.10 nM [OD450],OD450 at 1.00 nM [OD450],OD450 at 10 nM [OD450],OD450 at 100 nM [OD450]
B1,0.1,0.13,0.39,1.7,2.68,2.58,3
B2,0.1,0.13,0.37,1.51,2.42,2.41,2.55
B3,0.12,0.16,0.44,1.79,2.73,2.64,2.84
B4,0.1,0.14,0.42,1.61,2.55,2.49,3.09
B5,0.1,0.13,0.39,1.56,2.51,2.55,2.67

# Target: T3, Human CD19-his protein
# Test: ELISA on coated human CD19-His
row,Binder,EC50 (read off the curve) [nM]
1,B1,~0.05
2,B2,~0.05
3,B3,~0.05
4,B4,~0.05
5,B5,~0.05

# Target: T4, human CD19 on CHO-K1-human CD19 cells
# Test: FACS on CHO-K1-human CD19 cells
# Method: as §1
Binder,EC50 [nM],Maximum mean fluorescence intensity [MFI]
B1,1.23,54200
B2,1.14,52200
B3,1.18,51600
B4,1.1,54400
B5,1.19,54700
